# Molecular target: vimentin (human, UniProt P08670 2-466)
# Test: filter binding; Filter binding: 20 mM Tris, 150 mM NaCl, pH 8.0, 2 h, room temperature, 10 uL; flow cytometry: fixed IGROV cells, 22 C, 1 h; microscopy: 37 C, 1 h
# Conditions: label: 5'-biotin; predicted stem-loop
# vimentin, sequence (P08670 2-466): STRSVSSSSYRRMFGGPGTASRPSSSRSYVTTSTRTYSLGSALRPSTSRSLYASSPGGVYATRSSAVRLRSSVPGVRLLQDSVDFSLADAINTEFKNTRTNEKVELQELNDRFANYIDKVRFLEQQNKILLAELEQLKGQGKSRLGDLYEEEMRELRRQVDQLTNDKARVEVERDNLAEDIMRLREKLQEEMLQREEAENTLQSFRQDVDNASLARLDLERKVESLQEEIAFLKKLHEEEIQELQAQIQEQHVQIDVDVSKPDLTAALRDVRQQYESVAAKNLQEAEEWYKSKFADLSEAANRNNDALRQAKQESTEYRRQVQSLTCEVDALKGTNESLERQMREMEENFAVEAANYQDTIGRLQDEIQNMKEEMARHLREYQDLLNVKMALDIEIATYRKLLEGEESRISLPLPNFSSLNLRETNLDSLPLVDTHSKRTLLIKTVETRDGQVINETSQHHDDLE
row,Binder,Kd [nM]
1,"TAGACCCAGCTGGTCCGGAAAATAAGATGTCACGGATCCTC (XNA, monothioated phosphates 3' of adenines (shown in red, positions not in text)) [V5M2]",47.4
2,"ACCTCTTCAAGAACATCCCTGTCACGGATCCTCTAGAGCA (XNA, monothioated phosphates 3' of adenines (shown in red, positions not in text)) [V3M2]",18.9

# Source: PMC8588432, “Selection and Characterization of Vimentin-Binding Aptamer Motifs for Ovarian Cancer”
